# T1: IL-2Rβγ (dimeric intermediate affinity IL-2 receptor), human, on cells (human, UniProt P14784 27-551; P31785 23-369)
# T1 sequence (looked up) 1: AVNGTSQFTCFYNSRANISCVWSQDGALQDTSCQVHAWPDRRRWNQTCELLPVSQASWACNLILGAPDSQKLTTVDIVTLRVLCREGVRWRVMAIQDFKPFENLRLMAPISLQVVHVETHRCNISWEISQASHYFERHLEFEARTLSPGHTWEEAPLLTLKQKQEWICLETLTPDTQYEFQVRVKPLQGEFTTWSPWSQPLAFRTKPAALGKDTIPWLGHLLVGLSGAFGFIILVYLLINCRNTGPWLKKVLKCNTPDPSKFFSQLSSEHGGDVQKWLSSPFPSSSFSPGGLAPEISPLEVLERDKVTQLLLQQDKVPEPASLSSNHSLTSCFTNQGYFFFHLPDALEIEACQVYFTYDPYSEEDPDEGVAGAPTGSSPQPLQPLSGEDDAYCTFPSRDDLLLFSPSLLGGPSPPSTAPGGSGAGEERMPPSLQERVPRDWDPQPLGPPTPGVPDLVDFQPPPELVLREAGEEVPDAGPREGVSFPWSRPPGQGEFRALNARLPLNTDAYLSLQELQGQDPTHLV
# T1 sequence (looked up) 2: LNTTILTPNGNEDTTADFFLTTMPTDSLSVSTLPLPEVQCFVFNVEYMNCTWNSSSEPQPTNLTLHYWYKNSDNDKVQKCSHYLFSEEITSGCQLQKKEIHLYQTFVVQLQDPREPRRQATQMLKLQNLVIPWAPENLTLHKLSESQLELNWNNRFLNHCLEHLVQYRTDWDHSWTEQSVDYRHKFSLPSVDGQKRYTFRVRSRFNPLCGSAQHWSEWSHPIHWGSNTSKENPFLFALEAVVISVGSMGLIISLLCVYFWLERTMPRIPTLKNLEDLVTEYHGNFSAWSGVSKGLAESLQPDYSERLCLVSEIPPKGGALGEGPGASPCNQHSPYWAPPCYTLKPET
# T2: IL-2Rαβγ (trimeric high-affinity IL-2 receptor), human, on cells (human, UniProt P01589 22-272; P14784 27-551; P31785 23-369)
# T2 sequence (looked up) 1: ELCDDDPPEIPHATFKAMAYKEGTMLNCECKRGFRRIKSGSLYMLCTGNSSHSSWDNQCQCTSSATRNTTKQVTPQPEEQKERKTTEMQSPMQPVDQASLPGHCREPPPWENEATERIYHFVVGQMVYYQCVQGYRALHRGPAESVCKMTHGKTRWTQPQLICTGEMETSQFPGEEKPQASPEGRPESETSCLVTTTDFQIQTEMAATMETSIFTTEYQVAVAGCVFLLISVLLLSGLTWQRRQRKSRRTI
# T2 sequence (looked up) 2: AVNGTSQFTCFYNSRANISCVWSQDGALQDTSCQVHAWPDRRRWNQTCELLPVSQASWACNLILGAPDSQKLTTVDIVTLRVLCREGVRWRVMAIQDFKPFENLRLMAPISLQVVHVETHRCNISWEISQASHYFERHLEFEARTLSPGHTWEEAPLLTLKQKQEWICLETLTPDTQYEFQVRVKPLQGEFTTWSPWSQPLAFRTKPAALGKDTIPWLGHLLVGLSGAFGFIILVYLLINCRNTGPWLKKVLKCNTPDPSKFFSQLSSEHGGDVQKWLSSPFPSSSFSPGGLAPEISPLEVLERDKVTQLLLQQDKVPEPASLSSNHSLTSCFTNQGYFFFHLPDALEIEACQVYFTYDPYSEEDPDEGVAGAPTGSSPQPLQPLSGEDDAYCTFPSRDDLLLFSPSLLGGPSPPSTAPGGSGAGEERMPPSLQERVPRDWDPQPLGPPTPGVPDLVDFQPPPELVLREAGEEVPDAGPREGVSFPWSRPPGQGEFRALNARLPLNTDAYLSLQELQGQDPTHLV
# T2 sequence (looked up) 3: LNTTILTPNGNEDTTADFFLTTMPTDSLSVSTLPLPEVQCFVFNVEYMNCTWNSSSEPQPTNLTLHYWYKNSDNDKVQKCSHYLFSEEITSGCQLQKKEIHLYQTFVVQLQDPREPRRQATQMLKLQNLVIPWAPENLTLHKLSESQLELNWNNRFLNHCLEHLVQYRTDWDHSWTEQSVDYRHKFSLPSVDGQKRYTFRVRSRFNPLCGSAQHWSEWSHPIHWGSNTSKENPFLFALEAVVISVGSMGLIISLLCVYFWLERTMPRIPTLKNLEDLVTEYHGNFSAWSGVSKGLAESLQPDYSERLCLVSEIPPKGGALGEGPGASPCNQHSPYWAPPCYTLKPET
# T3: Human IL-2 Receptor beta, Fc-Tag (Symansis, New Zealand) (human, UniProt P14784 27-240)
# T3 construct: extracellular domain; Bought reagent; also called IL-2Rβ; IL-2Rβ-Fc; not shown: Fc-Tag (captured by anti-human IgG (Fc) antibody)
# T3 sequence (looked up): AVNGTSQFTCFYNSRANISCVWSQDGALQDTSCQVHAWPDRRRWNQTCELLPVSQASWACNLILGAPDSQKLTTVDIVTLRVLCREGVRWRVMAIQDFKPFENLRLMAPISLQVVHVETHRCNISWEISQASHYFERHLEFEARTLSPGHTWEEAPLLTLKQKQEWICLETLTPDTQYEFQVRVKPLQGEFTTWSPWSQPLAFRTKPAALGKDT
# T4: Human IL-2 Receptor alpha, Fc-Tag (Symansis, New Zealand) (human, UniProt P01589 22-240)
# T4 construct: extracellular domain; Bought reagent; also called IL-2Rα; IL-2Rα-Fc; not shown: Fc-Tag (captured by anti-human IgG (Fc) antibody)
# T4 sequence (looked up): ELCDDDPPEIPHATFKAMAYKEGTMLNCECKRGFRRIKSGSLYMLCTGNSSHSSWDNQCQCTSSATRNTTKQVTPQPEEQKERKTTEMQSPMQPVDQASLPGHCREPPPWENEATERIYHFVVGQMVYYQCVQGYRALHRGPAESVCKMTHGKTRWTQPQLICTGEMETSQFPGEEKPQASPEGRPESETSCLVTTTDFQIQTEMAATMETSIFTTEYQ
# Key:
# [1] = target: T1, IL-2Rβγ (dimeric intermediate affinity …); assay: cell-based or functional assay
# [2] = target: T1, IL-2Rβγ (dimeric intermediate affinity …); assay: cell-based or functional assay; remark: listed apart in the source
# [3] = target: T2, IL-2Rαβγ (trimeric high-affinity IL-2 …); assay: cell-based or functional assay
# [4] = target: T3, Human IL-2 Receptor beta, Fc-Tag …; assay: SPR (Biacore T200), IL-2Rβ-Fc captured on anti-human IgG (Fc) CM5 chip, IL-2 as analyte, multi-cycle kinetics, 1:1 kinetic fit, 25 C
# Procedure: (§1) For the determination of binding kinetics to IL-2Rβ the following chip preparation was used: Human IL-2 Receptor beta, Fc-Tag (Symansis, New Zealand) was diluted in HBS-EP running buffer (GE Healthcare, 10 mM HEPES, 150 mM NaCl, 3 mM EDTA, 0.05% Surfactant P20, pH 7.4) to around 0.25 µg/mL and immobilized at a flow rate of 50 µL/min for 60 s to achieve 300 - 330 response units (RU).
# (§2) (50 µL/min flow rate, 60 s contact time, 300 s dissociation time). Double referenced data (subtracted data from the reference flow cell and the buffer only samples) was analysed via a kinetic fit (1:1 binding model) to determine KD, kₐ and kd. Regeneration after each cycle was performed with 3 M MgCl₂.
# [5] = target: T4, Human IL-2 Receptor alpha, Fc-Tag …; assay: SPR; KD to IL-2Rα divided by KD to IL-2Rβ of the same compound
# Procedure: as §1, with “IL-2Rα” for “IL-2Rβ”, “alpha,” for “beta,”, “approx.” for “around”, “90” for “300”, “110” for “330”
# as §1, §2
# [6] = target: T4, Human IL-2 Receptor alpha, Fc-Tag …; assay: calculated from the SPR KD values of Example 15; reference protein 5a
# Procedure: as §1, with “IL-2Rα” for “IL-2Rβ”, “alpha,” for “beta,”, “approx.” for “around”, “90” for “300”, “110” for “330”
# as §1, §2
binder,measurement,setting,value
"protein 6 (ligand, glycosylated (same sequence with the N-glycosylation motif FGNST as protein 1f); glycan sites not analysed separately for protein 6) APTSSSTKKTQLQLEHLLLDLQMILNGINNYKNPKLTFGNSTKFYMPKKATELKHLQCLEEELKPLEEVLNLAQSKNFHLRPRDLISNINVIVLELKGSETTFMCEYADETATIVEFLNRWITFSQSIISTLT","EC50 HH cells, STAT5 phosphorylation",[1],0.0966 µg/mL
same,"EC50, pSTAT5 MFI, CD8 (human PBMCs)",[2],78.8 ng/mL
same,"EC50, pSTAT5 MFI, NK (human PBMCs)",[2],11.7 ng/mL
same,"EC50, pSTAT5 MFI, Treg (human PBMCs)",[3],38 ng/mL
same,Kd,[4],740 nM
same,KD-Ratio (α/β),[5],> 2.7
same,ratio of Ratio protein 6 to Ratio protein 5a (KD to IL-2Rα / KD to IL-2Rβ),[6],> 100

# — US20230340055A1 (published 2023)
